Laboratory results from the supplement of paper PMC11246515.
± gives the standard deviation of the averaged measurements.

Assay: total protein half-life in vivo (active degradation + dilution); higher = more stable protein
[1] = E. coli NCM3722 delta-clpP delta-lon delta-hslV, growth: N-lim chemostat, doubling time 6 h
[2] = E. coli NCM3722 delta-clpP, growth: N-lim chemostat, doubling time 6 h
[3] = E. coli NCM3722 delta-hslV, growth: N-lim chemostat, doubling time 6 h
[4] = E. coli NCM3722 delta-lon, growth: N-lim chemostat, doubling time 6 h
[5] = E. coli NCM3722 delta-smpB, growth: N-lim chemostat, doubling time 6 h
[6] = wild type E. coli NCM3722, growth: C-lim chemostat, doubling time 3 h
[7] = wild type E. coli NCM3722, growth: C-lim chemostat, doubling time 6 h
[8] = wild type E. coli NCM3722, growth: C-lim chemostat, doubling time 12 h
[9] = wild type E. coli NCM3722, growth: N-lim chemostat, doubling time 6 h
[10] = wild type E. coli NCM3722, growth: P-lim chemostat, doubling time 6 h
[11] = wild type E. coli NCM3722, growth: P-lim chemostat, doubling time 12 h
[12] = wild type E. coli NCM3722, growth: N-lim chemostat, doubling time 12 h

| Sequence | total protein half-life in vivo [1] | total protein half-life in vivo [2] | total protein half-life in vivo [3] | total protein half-life in vivo [4] | total protein half-life in vivo [5] | total protein half-life in vivo [6] | total protein half-life in vivo [7] | total protein half-life in vivo [8] | total protein half-life in vivo [9] | total protein half-life in vivo [10] | total protein half-life in vivo [11] | total protein half-life in vivo [12] |
| --- | --- | --- | --- | --- | --- | --- | --- | --- | --- | --- | --- | --- |
| MQNNEQTEYKTVRGLTRGLMLLNMLNKLDGGASVGLLAELSGLHRTTVRRLLETLQEEGYVRRSPSDDSFRLTIKVRQLSEGFRDEQWISALAAPLLGDLLREVVWPTDVSTLDVDAMVVRETTHRFSRLSFHRAMVGRRLPLLKTASGLTWLAFCPEQDRKELIEMLASRPGDDYQLAREPLKLEAILARARKEGYGQNYRGWDQEEKIASIAVPLRSEQRVIGCLNLVYMASAMTIEQAAEKHLPALQRVAKQIEEGVESQAILVAGRRSGMHLR | 6.32 ± 0.84 h | 2.12 h | 1.85 ± 0.042 h | 2.59 h | 1.26 h | 1.55 ± 0.24 h | 2.35 ± 0.052 h | 3.26 ± 1.1 h | 1.85 ± 0.27 h | 1.72 ± 0.43 h | 2.94 ± 0.64 h | – |
| MQPFGVLDRYIGKTIFTTIMMTLFMLVSLSGIIKFVDQLKKAGQGSYDALGAGMYTLLSVPKDVQIFFPMAALLGALLGLGMLAQRSELVVMQASGFTRMQVALSVMKTAIPLVLLTMAIGEWVAPQGEQMARNYRAQAMYGGSLLSTQQGLWAKDGNNFVYIERVKGDEELGGISIYAFNENRRLQSVRYAATAKFDPEHKVWRLSQVDESDLTNPKQITGSQTVSGTWKTNLTPDKLGVVALDPDALSISGLHNYVKYLKSSGQDAGRYQLNMWSKIFQPLSVAVMMLMALSFIFGPLRSVPMGVRVVTGISFGFVFYVLDQIFGPLTLVYGIPPIIGALLPSASFFLISLWLLMRKS [P0ADC6] | – | 6.53 ± 0.4 h | 6.81 ± 0.8 h | 6.01 ± 0.47 h | 6.08 ± 0.48 h | – | 6.69 ± 0.65 h | 12.3 ± 0.43 h | 6.06 ± 0.099 h | 6.22 ± 0.49 h | 13.5 ± 0.88 h | 12.9 ± 0.5 h |
| MQPNDITFFQRFQDDILAGRKTITIRDESESHFKTGDVLRVGRFEDDGYFCTIEVTATSTVTLDTLTEKHAEQENMTLTELKKVIADIYPGQTQFYVIEFKCL | – | 5.77 ± 0.22 h | 5.77 ± 0.14 h | 6.02 ± 0.22 h | 6.22 ± 0.28 h | 3.49 ± 0.34 h | 5.2 ± 1.4 h | 10.4 ± 3.3 h | 6.12 ± 0.24 h | 6.47 ± 0.56 h | 14 ± 0.55 h | 11.3 ± 0.97 h |
| MQQIARSVALAFNNLPRPHRVMLGSLTVLTLAVAVWRPYVYHRDATPIVKTIELEQNEIRSLLPEASEPIDQAAQEDEAIPQDELDDKIAGEAGVHEYVVSTGDTLSSILNQYGIDMGDITQLAAADKELRNLKIGQQLSWTLTADGELQRLTWEVSRRETRTYDRTAANGFKMTSEMQQGEWVNNLLKGTVGGSFVASARNAGLTSAEVSAVIKAMQWQMDFRKLKKGDEFAVLMSREMLDGKREQSQLLGVRLRSEGKDYYAIRAEDGKFYDRNGTGLAKGFLRFPTAKQFRISSNFNPRRTNPVTGRVAPHRGVDFAMPQGTPVLSVGDGEVVVAKRSGAAGYYVAIRHGRSYTTRYMHLRKILVKPGQKVKRGDRIALSGNTGRSTGPHLHYEVWINQQAVNPLTAKLPRTEGLTGSDRREFLAQAKEIVPQLRFD [P0AFS9] | 3.29 h | – | 6.32 h | – | – | 0.826 ± 0.34 h | 3.3 ± 0.13 h | 6.19 h | 5.39 h | – | – | – |
| MQQKMIQFSGDVSLPAVGQGTWYMGEDASQRKTEVAALRAGIELGLTLIDTAEMYADGGAEKVVGEALTGLREKVFLVSKVYPWNAGGQKAINACEASLRRLNTDYLDLYLLHWSGSFAFEETVAAMEKLIAQGKIRRWGVSNLDYADMQELWQLPGGNQCATNQVLYHLGSRGIEYDLLPWCQQQQMPVMAYSPLAQAGRLRNGLLKNAVVNEIAHAHNISAAQVLLAWVISHQGVMAIPKAATIAHVQQNAAVLEVELSSAELAMLDKAYPAPKGKTALDMV | > 8 h | – | – | – | – | 2.9 ± 0.38 h | 5.61 ± 0.92 h | 8.61 ± 1.4 h | – | 5.03 ± 0.38 h | 9.97 ± 0.73 h | – |
| MQQLQNIIETAFERRAEITPANADTVTREAVNQVIALLDSGALRVAEKIDGQWVTHQWLKKAVLLSFRINDNQVIEGAESRYFDKVPMKFADYDEARFQKEGFRVVPPAAVRQGAFIARNTVLMPSYVNIGAYVDEGTMVDTWATVGSCAQIGKNVHLSGGVGIGGVLEPLQANPTIIEDNCFIGARSEVVEGVIVEEGSVISMGVYIGQSTRIYDRETGEIHYGRVPAGSVVVSGNLPSKDGKYSLYCAVIVKKVDAKTRGKVGINELLRTID [P0A9D8] | 4.878 ± 0.043 h | 4.24 ± 0.13 h | 4.13 ± 0.23 h | 4.507 ± 0.042 h | 4.12 ± 0.12 h | 2.97 ± 0.074 h | 5.34 ± 0.39 h | 9.591 ± 0.062 h | 4.19 ± 0.11 h | 5.91 ± 0.12 h | 11 ± 0.57 h | 6.89 ± 0.2 h |
| MQRKTLLSACIALALSGQGWAADITEVETTTGEKKNTNVTCPADPGKLSPEELKRLPSECSPLVEQNLMPWLSTGAAALITALAVVELNDDDDHHHRNNSPLPPTPPDDESDDTPVPPTPGGDEIIPDDPDDTPTPPKPVSFNNDVILDKTEKTLTIRDSVFTYTENADGTISLQDSNGRKATINLWQIDEANNTVALEGVSADGATKWQYNHNGELVITGDNATVNNNGKTTVDGKDSTGTEINGNNGKVIQDGDLDVSGGGHGIDITGDSATVDNKGTMTVTDPESMGIQIDGDKAIVNNEGESTITNGGTGTQINGDDATANNNGKTTVDGKDSTGTEINGNNGKVIQDGDLDVSGGGHGIDITGDSATVDNKGTMTVTDPESIGIQVDGDQAVVNNEGESAITNGGTGTQINGDDATANNNGKTTVDGKDSTGTEIAGNNGKVIQDGDLDVSGGGHGIDITGDSATVDNKGTMTVTDPESIGIQIDGDQAIVNNEGESTITNGGTGTQINGNDATANNSGKTTVDGKDSTGTKIAGNIGIVNLDGSLTVTGGAHGVENIGDNGTVNNKGDIVVSDTGSIGVLINGEGATVSNTGDVNVSNEATGFSITTNSGKVSLAGSMQVGDFSTGVDLNGNNNSVTLAAKDLKVVGQKATGINVSGDANTVNITGNVLVDKDKTADNAAEYFFDPSVGINVYGSDNNVTLDGKLTVVSDSEVTSRQSNLFDGSAEKTSGLVVIGDGNTVNMNGGLELIGEKNALADGSQVTSLRTGYSYTSVIVVSGESSVYLNGDTTISGEFPLGFAGVIRVQDKALLEIGSGATLTMQDIDSFEHHGTRTLDLPLYFQTSVIT | – | – | – | – | – | – | – | – | – | – | 11 ± 1.1 h | – |
| MQRRDFLKYSVALGVASALPLWSRAVFAAERPTLPIPDLLTTDARNRIQLTIGAGQSTFGGKTATTWGYNGNLLGPAVKLQRGKAVTVDIYNQLTEETTLHWHGLEVPGEVDGGPQGIIPPGGKRSVTLNVDQPAATCWFHPHQHGKTGRQVAMGLAGLVVIEDDEILKLMLPKQWGIDDVPVIVQDKKFSADGQIDYQLDVMTAAVGWFGDTLLTNGAIYPQHAAPRGWLRLRLLNGCNARSLNFATSDNRPLYVIASDGGLLPEPVKVSELPVLMGERFEVLVEVNDNKPFDLVTLPVSQMGMAIAPFDKPHPVMRIQPIAISASGALPDTLSSLPALPSLEGLTVRKLQLSMDPMLDMMGMQMLMEKYGDQAMAGMDHSQMMGHMGHGNMNHMNHGGKFDFHHANKINGQAFDMNKPMFAAAKGQYERWVISGVGDMMLHPFHIHGTQFRILSENGKPPAAHRAGWKDTVKVEGNVSEVLVKFNHDAPKEHAYMAHCHLLEHEDTGMMLGFTV | – | 5.63 ± 0.14 h | 6.68 ± 0.32 h | 6.57 ± 0.91 h | 5.62 ± 0.1 h | 2.84 ± 0.38 h | 5.977 ± 0.041 h | 11.2 ± 1.3 h | 5.944 ± 0.022 h | 5.657 ± 0.043 h | 14.4 ± 1.6 h | 13.8 ± 1 h |
| MQSDKVLNLPAGYFGIVLGTIGMGFAWRYASQVWQVSHWLGDGLVILAMIIWGLLTSAFIARLIRFPHSVLAEVRHPVLSSFVSLFPATTMLVAIGFVPWFRPLAVCLFSFGVVVQLAYAAWQTAGLWRGSHPEEATTPGLYLPTVANNFISAMACGALGYTDAGLVFLGAGVFSWLSLEPVILQRLRSSGELPTALRTSLGIQLAPALVACSAWLSVNGGEGDTLAKMLFGYGLLQLLFMLRLMPWYLSQPFNASFWSFSFGVSALATTGLHLGSGSDNGFFHTLAVPLFIFTNFIIAILLIRTFALLMQGKLLVRTERAVLMKAEDKE | – | – | – | – | 6.2 h | – | > 8 h | – | – | 6.53 h | – | – |
